Laboratory results reported in patent US20220048967A1 (published 2022).
Numbered stars: 1 amine (or outer) side, 2 acyl side, 3 side chain; on linkers, the order of the positions; unused ones are H or OH. Square brackets hold non-standard residues; d marks the D form. Side chains are listed from the residue outwards. Ends that are not written are not given here. * marks the point of attachment. C20 diacid = O=C(O)CCCCCCCCCCCCCCCCCCC(=O)*; γGlu = O=C(O)[C@H](CCC(=O)[*:2])N[*:1]; AEEA = NCCOCCOCC(=O)O; Aib = CC(C)(N)C(=O)O

B1: Example 327 (peptide)
peptide: FXEGTFTSDYSIXLDKKAQXAFIEYLIEGGPSSGAPPPS
modifications: Aib2, αMeL13, (2-[2-(2-Amino-ethoxy)-ethoxy]-acetyl)2-(γ-Glu)-CO-(CH2)18-CO2H on K17, Aib20, C-terminal NH2
B2: Example 328 (peptide)
peptide: FXEGTFTSDYSIXLDKKAQXAFIEYLIEAGPSSGAPPPS
modifications: Aib2, αMeL13, (2-[2-(2-Amino-ethoxy)-ethoxy]-acetyl)2-(γ-Glu)-CO-(CH2)16-CO2H on K17, Aib20, C-terminal NH2
B3: Example 329 (peptide)
peptide: XXEGTXTSDYSILLDKKAQXAFIEYLIEGGPSSGAPPPS
modifications: D-Tyr1, Aib2, αMeF6, (2-[2-(2-Amino-ethoxy)-ethoxy]-acetyl)2-(γ-Glu)-CO-(CH2)18-CO2H on K17, Aib20, C-terminal NH2
B4: Example 332 (peptide)
peptide: YXEGTFTSDYSIXLDEKAQXAFIEYLIAGGPSSGAPPPS
modifications: Aib2, αMeL13, (2-[2-(2-Amino-ethoxy)-ethoxy]-acetyl)2-(γ-Glu)-CO-(CH2)18-CO2H on K17, Aib20, C-terminal NH2
B5: Example 331 (peptide)
peptide: YXEGTFTSDYSIXLDEKAQXEFIEYLIAGGPSSGAPPPS
modifications: Aib2, αMeL13, (2-[2-(2-Amino-ethoxy)-ethoxy]-acetyl)2-(γ-Glu)-CO-(CH2)18-CO2H on K17, Aib20, C-terminal NH2
B6: Example 333 (peptide)
peptide: YXEGTFTSDYSIXLDKKAQXEFIEYLIEGGPSSGAPPPS
modifications: not fully specified; Aib2, αMeL13, (2-[2-(2-Amino-ethoxy)-ethoxy]-acetyl)2-(γ-Glu)-CO-(CH2)18-CO2H on K17, Aib20, C-terminal NH2
B7: Example 337 (peptide)
peptide: FXEGTFTSDYSIXLDKKAQXAFIEYLIAGGPSSGAPPPS
modifications: not fully specified; Aib2, αMeL13, (2-[2-(2-Amino-ethoxy)-ethoxy]-acetyl)2-(γ-Glu)-CO-(CH2)18-CO2H on K17, Aib20, C-terminal NH2
B8: Example 334 (peptide)
peptide: XXEGTFTSDYSIXLDKKAQXAFIEYLIEGGPSSGAPPPS
modifications: not fully specified; D-Tyr1, Aib2, αMeL13, (2-[2-(2-Amino-ethoxy)-ethoxy]-acetyl)2-(γ-Glu)-CO-(CH2)18-CO2H on K17, Aib20, C-terminal NH2
B9: Example 330 (peptide)
peptide: Y[Aib]EGTFTSDYSILLDEK([AEEA-AEEA-γGlu-C20 diacid])AQ[Aib]AFIEYLIAGGPSSGAPPPS-NH2
modifications: N-terminus assumed
SMILES: CC[C@H](C)[C@H](NC(=O)[C@H](CC(C)C)NC(=O)[C@H](Cc1ccc(O)cc1)NC(=O)[C@H](CCC(=O)O)NC(=O)[C@@H](NC(=O)[C@H](Cc1ccccc1)NC(=O)[C@H](C)NC(=O)C(C)(C)NC(=O)[C@H](CCC(N)=O)NC(=O)[C@H](C)NC(=O)[C@H](CCCCNC(=O)COCCOCCNC(=O)COCCOCCNC(=O)CC[C@H](NC(=O)CCCCCCCCCCCCCCCCCCC(=O)O)C(=O)O)NC(=O)[C@H](CCC(=O)O)NC(=O)[C@H](CC(=O)O)NC(=O)[C@H](CC(C)C)NC(=O)[C@H](CC(C)C)NC(=O)[C@@H](NC(=O)[C@H](CO)NC(=O)[C@H](Cc1ccc(O)cc1)NC(=O)[C@H](CC(=O)O)NC(=O)[C@H](CO)NC(=O)[C@@H](NC(=O)[C@H](Cc1ccccc1)NC(=O)[C@@H](NC(=O)CNC(=O)[C@H](CCC(=O)O)NC(=O)C(C)(C)NC(=O)[C@@H](N)Cc1ccc(O)cc1)[C@@H](C)O)[C@@H](C)O)[C@@H](C)CC)[C@@H](C)CC)C(=O)N[C@@H](C)C(=O)NCC(=O)NCC(=O)N1CCC[C@H]1C(=O)N[C@@H](CO)C(=O)N[C@@H](CO)C(=O)NCC(=O)N[C@@H](C)C(=O)N1CCC[C@H]1C(=O)N1CCC[C@H]1C(=O)N1CCC[C@H]1C(=O)N[C@@H](CO)C(N)=O

Tests used:
[1] = molecular target: T1, human gastric inhibitory peptide receptor (GIPR) (human, UniProt P48546 22-466); experiment: cell-based or functional assay
T1 sequence (looked up): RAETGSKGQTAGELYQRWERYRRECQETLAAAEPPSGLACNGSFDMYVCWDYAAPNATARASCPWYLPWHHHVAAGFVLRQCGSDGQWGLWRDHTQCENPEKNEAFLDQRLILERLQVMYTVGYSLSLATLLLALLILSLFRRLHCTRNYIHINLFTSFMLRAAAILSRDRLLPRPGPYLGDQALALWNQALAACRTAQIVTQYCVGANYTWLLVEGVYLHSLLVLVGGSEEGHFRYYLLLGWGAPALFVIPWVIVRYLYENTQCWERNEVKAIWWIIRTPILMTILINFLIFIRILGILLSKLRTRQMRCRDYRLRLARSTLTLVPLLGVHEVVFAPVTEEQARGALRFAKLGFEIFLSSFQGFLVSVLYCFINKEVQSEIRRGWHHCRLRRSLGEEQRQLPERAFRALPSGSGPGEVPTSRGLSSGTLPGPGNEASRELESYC

[2] = molecular target: human GLP-1 receptor (GLP-1R) (human, UniProt P43220 24-463); experiment: cell-based or functional assay

Row | Binder | hGIPR cAMP EC50 ratio [1] | hGIPR cAMP Rel EC50 [1] | hGLP1R cAMP EC50 ratio [2] | hGLP1R cAMP Rel EC50 [2]
1 | F[Aib]EGTFTSDYSILLDKK([AEEA-AEEA-γGlu-C20 diacid])AQ[Aib]AFIEYLIEGGPSSGAPPPS-NH2 [Example 326] | 1.5 | 0.0754 nM | 1.4 | 0.0369 nM
2 | B1 | 1.47 | 0.0548 nM | 0.191 | 0.27 nM
3 | B2 | 0.94 | 0.0965 nM | 0.575 | 0.117 nM
4 | B3 | 0.687 | 0.132 nM | 0.535 | 0.125 nM
5 | B4 | 0.949 | 0.0745 nM | 0.345 | 0.184 nM
6 | B5 | 1.4 | 0.0547 nM | 0.808 | 0.0929 nM
7 | B6 | 2.31 | 0.0492 nM | 0.487 | 0.131 nM
8 | B7 | 1.18 | 0.0515 nM | 0.265 | 0.173 nM
9 | B8 | 0.844 | 0.0718 nM | 0.151 | 0.303 nM
10 | B9 | 0.562 | 0.0919 nM | 0.255 | 0.199 nM
